Source: the supplement of paper PMC12764529
± gives the half width of the 95% confidence interval.

Experiments:
[1] = folding stability dG unfold from trypsin proteolysis; higher = more stable
Method in brief: (§1)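 Designed mini-proteins with no cysteine and under 80 residues were kept only if AlphaFold2 dimer inter-PAE was above 15. In a PA-tagged cDNA display construct, they were digested with trypsin and chymotrypsin and then sequenced. K50 was inferred by Bayesian fitting of counts, and unfolding free energy was derived per protease or combined against a sequence-predicted unfolded-state K50 and a shared folded-state K50.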

[2] = folding stability dG unfold from chymotrypsin proteolysis; higher = more stable
Method in brief: as §1

[3] = folding stability dG unfold (combined trypsin and chymotrypsin); higher = more stable
Method in brief: as §1

Row | Sequence | folding stability dG unfold [1] | folding stability dG unfold [2] | folding stability dG unfold [3]
1 | SAGGSAGGSAGLTKPVEVEVEEDGTVTIKTLSIVPVDDGYELHEETTEIPLSPEEIAALQSAGGSAGGSAGG [r17_415_JUSTAS] | 0.504 ± 0.035 kcal/mol | -0.158 ± 0.33 kcal/mol | 0.327 ± 0.17 kcal/mol
2 | SAGGSAGGSAGMEPPEIKVEVSSDPTPSGMKVETIKDLGKGKTIIVLKPEDGSVSTSTLESAGGSAGGSAGG [r11_55_JUSTAS] | -0.0544 ± 0.19 kcal/mol | 0.286 ± 0.13 kcal/mol | 0.0414 ± 0.44 kcal/mol
3 | SAGGSAGGSAGMETIRLTFTVPGPDDRYYRVSVEARINPPTGEIEILRVEITPLDNPDAISAGGSAGGSAGG [r11_777_TrMRF] | 3.09 ± 0.12 kcal/mol | 3.93 ± 0.035 kcal/mol | 3.69 ± 0.052 kcal/mol
4 | SAGGSAGGSAGMEVILLEVDSEEEAEKLVKELSEKYGYPVKVEKDPENPKLVTLTIEKPKSAGGSAGGSAGG [r11_797_JUSTAS] | 1.41 ± 0.066 kcal/mol | 1.16 ± 0.039 kcal/mol | 1.36 ± 0.067 kcal/mol
5 | SAGGSAGGSAGMEYSIDKASGKILIKIPDEDKTWILYDPKTGEKYIFKQIGGKWYKVEKVSAGGSAGGSAGG [r11_1036_TrMRF] | 1.57 ± 0.058 kcal/mol | 1.87 ± 0.14 kcal/mol | 1.91 ± 0.26 kcal/mol
6 | SAGGSAGGSAGMGVPPDGATLRFTYPESPSSTRTFTSPEEAAAWIAANLPPEHSVSFSPASAGGSAGGSAGG [r11_983_JUSTAS] | 0.25 ± 0.1 kcal/mol | 0.863 ± 0.12 kcal/mol | 0.684 ± 0.084 kcal/mol
7 | SAGGSAGGSAGMITIERIPGSGKLVITITDPGSGKVLTIPFDNADPKEALAKAKELLKKLSAGGSAGGSAGG [r17_386_JUSTAS] | 3.25 ± 0.071 kcal/mol | 3.19 ± 0.048 kcal/mol | 3.25 ± 0.075 kcal/mol
8 | SAGGSAGGSAGMKEGEKPKVKIEIDVLIEVDGKLYRVRAEAEINEDGEITIKVEIEELPDSAGGSAGGSAGG [r11_551_TrROS_Hall] | 2.4 ± 0.11 kcal/mol | 3.65 ± 0.11 kcal/mol | 3.3 ± 0.12 kcal/mol
9 | SAGGSAGGSAGMKELEITIIDKKTGKPLKVKVTLVEVDGKLYLVIEVYKNGKPLETYVLPSAGGSAGGSAGG [r11_631_TrROS_Hall] | 2.29 ± 0.12 kcal/mol | 3.2 ± 0.072 kcal/mol | 3 ± 0.18 kcal/mol
10 | SAGGSAGGSAGMKIEKNKDGKLRIIIYNKNGKKVKEIEMSVEEAKKLAEKNNFEIVKIEPSAGGSAGGSAGG [r11_521_TrROS_Hall] | 1.02 ± 0.093 kcal/mol | 0.966 ± 0.41 kcal/mol | 1.09 ± 0.21 kcal/mol
11 | SAGGSAGGSAGMKIRIELPGMSPEQIEELAKLIPNVRVSITYDKETNRVYVEIEVSEEDLSAGGSAGGSAGG [r11_862_TrROS_Hall] | 2.38 ± 0.058 kcal/mol | 3.21 ± 0.052 kcal/mol | 2.88 ± 0.051 kcal/mol
12 | SAGGSAGGSAGMKKNEKLITELTFEGPDVYVKITIEKTFDPEGNKIYFKAKIEVFAPGELSAGGSAGGSAGG [r11_237_TrMRF] | 2.83 ± 0.097 kcal/mol | 4.06 ± 0.075 kcal/mol | 3.67 ± 0.1 kcal/mol
13 | SAGGSAGGSAGMKKTVTTSTAPDGTLTTTTTVPTPDSTTTVVTTTTDPTTGTTTTTTTANSAGGSAGGSAGG [r11_107_JUSTAS] | -2 ± 0.54 kcal/mol | -0.317 ± 0.095 kcal/mol | -0.711 ± 0.34 kcal/mol
14 | SAGGSAGGSAGMKLTITVTFPDGTTPTFEVPPNSGDPAEVAAAIRAAHPDVVTITITPELSAGGSAGGSAGG [r11_311_JUSTAS] | 0.683 ± 0.039 kcal/mol | 0.27 ± 0.063 kcal/mol | 0.448 ± 0.12 kcal/mol
15 | SAGGSAGGSAGMKTLKIASISTSTSPTNTTLTTVTITSEGVTTTVTFPPGTTLEEVLEQLSAGGSAGGSAGG [r11_1056_JUSTAS] | 0.53 ± 0.049 kcal/mol | 0.678 ± 0.11 kcal/mol | 0.685 ± 0.1 kcal/mol
16 | SAGGSAGGSAGMKTSVTTPVTLPDGTPAVVTKYDGEVEIIDTGDGTSKVVPLSEVPPKLLSAGGSAGGSAGG [r11_155_JUSTAS] | 0.678 ± 0.035 kcal/mol | 0.422 ± 0.076 kcal/mol | 0.604 ± 0.07 kcal/mol

Row | Sequence | folding stability dG unfold [1] | folding stability dG unfold [2] | folding stability dG unfold [3]
17 | SAGGSAGGSAGMKTTTLEVSTDPSGYTTTKTKIEIINENTPSISTSTVVTAVTPPAPPIASAGGSAGGSAGG [r11_830_JUSTAS] | 0.133 ± 0.017 kcal/mol | 0.122 ± 0.11 kcal/mol | 0.195 ± 0.057 kcal/mol
18 | SAGGSAGGSAGMKTTYDPDTNKLSITLPNGTVATYYLGTGVIEIPDEVSSKEDIKVEKAASAGGSAGGSAGG [r17_174_JUSTAS] | 0.321 ± 0.11 kcal/mol | 0.956 ± 0.17 kcal/mol | 0.79 ± 0.15 kcal/mol
19 | SAGGSAGGSAGMKTVTVTVPPSAGVDAVREALAAQGMTVTSVSREGDTLTVTTEAPPELLSAGGSAGGSAGG [r11_672_JUSTAS] | -0.866 ± 0.14 kcal/mol | 0.294 ± 0.08 kcal/mol | 0.024 ± 0.13 kcal/mol
20 | SAGGSAGGSAGMKVTIEENEETGKFTIKVKTEDGEEKTIEIPKENLEEILAKLPPNVEIISAGGSAGGSAGG [r11_569_TrROS_Hall] | 2.52 ± 0.11 kcal/mol | 1.92 ± 0.036 kcal/mol | 2.14 ± 0.17 kcal/mol
21 | SAGGSAGGSAGMKVTVTITYPGGKVTTLDGDPEEVKAALPSSLTDVKITVTDPATGKVAASAGGSAGGSAGG [r11_353_JUSTAS] | -0.213 ± 0.06 kcal/mol | 0.838 ± 0.032 kcal/mol | 0.635 ± 0.12 kcal/mol
22 | SAGGSAGGSAGMKVVVELEVTFDSEEEAEAVAKAIAEELGSEDVVVKVIRKPVELGPGLKSAGGSAGGSAGG [r17_285_JUSTAS] | 0.0891 ± 0.061 kcal/mol | 0.891 ± 0.031 kcal/mol | 0.656 ± 0.051 kcal/mol
23 | SAGGSAGGSAGMKVVVTLPDRTVTIPVNGTLDEAKEAVIKRAEELFGKPIPIEEITMSGESAGGSAGGSAGG [r11_1028_JUSTAS] | 0.677 ± 0.03 kcal/mol | -0.0243 ± 0.083 kcal/mol | 0.408 ± 0.11 kcal/mol
24 | SAGGSAGGSAGMLIELTVETSVTTVSTPDATFTVVTLKEPGKPETLGTVVYDPATGSPALSAGGSAGGSAGG [r11_645_JUSTAS] | 0.615 ± 0.036 kcal/mol | -0.959 ± 0.39 kcal/mol | 0.168 ± 0.14 kcal/mol
25 | SAGGSAGGSAGMLKKSPSPSIITVKIKPPDSDEVKTINIPPDKPEEVEKLREKGLEIEVLSAGGSAGGSAGG [r11_1006_JUSTAS] | -0.459 ± 0.35 kcal/mol | -0.178 ± 0.37 kcal/mol | -0.211 ± 0.26 kcal/mol
26 | SAGGSAGGSAGMMKVRIRVDGKEIEIEVPPGMTVDEIAERLKKEFGKDIEIEVEEVKPEPSAGGSAGGSAGG [r11_805_TrROS_Hall] | 3.72 ± 0.23 kcal/mol | 3.17 ± 0.1 kcal/mol | 3.39 ± 0.22 kcal/mol
27 | SAGGSAGGSAGMPEVEVEVKIIKFDKEKNVFVIEVTDKKTGKRVTLTIKNGKIELKVEEPSAGGSAGGSAGG [r17_370_TrROS_Hall] | 2.85 ± 0.098 kcal/mol | 4.06 ± 0.089 kcal/mol | 3.7 ± 0.19 kcal/mol
28 | SAGGSAGGSAGMPKRKITKIETEELPPELIRVTITLPDGTPVPVVVSPDDEEVKAIIEKLSAGGSAGGSAGG [r11_122_JUSTAS] | -0.0513 ± 0.3 kcal/mol | 0.113 ± 0.13 kcal/mol | 0.311 ± 0.24 kcal/mol
29 | SAGGSAGGSAGMPLTVLGTEEIGDSTTVTTKDPTSDELYRKTYTNGAVSSTEIVPASELGSAGGSAGGSAGG [r11_19_JUSTAS] | 0.0214 ± 0.053 kcal/mol | 0.282 ± 0.07 kcal/mol | 0.217 ± 0.072 kcal/mol
30 | SAGGSAGGSAGMPVKVVLVKWKGGGLEPEGGEEREVEIGPEELEKLVKEAEKEGYEVYPASAGGSAGGSAGG [r17_18_TrMRF] | 0.165 ± 0.11 kcal/mol | -0.126 ± 0.35 kcal/mol | 0.0684 ± 0.36 kcal/mol
31 | SAGGSAGGSAGMRLVTITLTTEKPIFDENGNPIGTTTRTVVLEREVPEPEVPEVPLYQALSAGGSAGGSAGG [r11_131_JUSTAS] | 0.304 ± 0.18 kcal/mol | 0.189 ± 0.18 kcal/mol | 0.261 ± 0.17 kcal/mol
